Reference: US20240010701A1

Columns and labels:
hFcγIIIa (human) [1] = target: hFcγIIIa (human) (UniProt P08637); test: SPR (Biacore 8K), 25° C, antibody captured on nectin-4-coated chip, receptor ECD as analyte, steady-state analysis
FcγIIIaV158F (human) [2] = target: FcγIIIaV158F (human) (UniProt P08637); test: as above
hFcγIIIa (human) [3] = target: hFcγIIIa (human) (UniProt P08637); test: SPR (Biacore 8K), 25° C, ADC captured on nectin-4-coated chip, receptor ECD as analyte, steady-state analysis
FcγIIIaV158F (human) [4] = target: FcγIIIaV158F (human) (UniProt P08637); test: as above

Row | Substance | Kd (hFcγIIIa (human) [1]) | Kd (FcγIIIaV158F (human) [2]) | Kd (hFcγIIIa (human) [3]) | Kd (FcγIIIaV158F (human) [4])
1 | DRUG B (enfortumab similar antibody that specifically binds human nectin-4) | 316 nM | 983 nM | – | –
2 | DRUG C (enfortumab vedotin similar antibody-drug conjugate) | – | – | 429 nM | 1200 nM
